The numbers were not newly measured in PMC4723247, “Novel α-L-Fucosidases from a Soil Metagenome for Production of Fucosylated Human Milk Oligosaccharides” (PLoS ONE, 2016), which cites them from elsewhere.

Details of the data set: method as in earlier work. The note with it: S2 Table, wrapped lists given only as far as the first printed line, ref http://www.cazy.org/GH29_characterized.html and S2 Table refs 1-18.

Where two headings read alike, the source gives them in different places.

B1: FUCA1: α-L-fucosidase from Canis lupus familiaris (Uniprot P48300) (protein, UniProt P48300 27-465, looked up)
Tissue alpha-L-fucosidase: LVRAAAPPRRYTPDWQSLDSRPLPDWFDKAKFGVFVHWGEFAVPAWGSEWFWWHWKGEGLPQYEQFMSENYPPGFSYADFGPQFTARFFHPDTWADLFQAAGARYVVLTTKHHEGFTNWPSSVSWNWNSNDVGPHRDLVGELGRALRKRNIRYGLYHSLLEWFHPLYLLDKKNNFKTQFFVRAKTMPELYDLVNRYEPDLIWSDGEWKCPDTYWNSTEFLSWLYNDSPVKDHVVVNDRWGQNCSCHHGGYYNCQDKYKPESLPDLKWEMCTSIDKVSWGYRRNMVMSDVASECEIISELVQTVSLGGNYLLNIGPTKDGLIVPIFQERLLSIGKWLSINGEAIYASKPWRVQLEKNTTSVWYTSRGMTVYAIFLRWPENGVLSLKSPVTTSTTQITMLGIQKDLKWSTEPEGLLIYLPQLSLFTLPVEFGWTIKLTGVE
Regarding B1, the Reported substrates hydrolyzed is 4- methylumbelliferyl- α- L-fucopyrano side and the “Reported substrates not hydrolyzed” value is listed as 4- methylumbellife ryl β-fucopyranos i de. For the same molecule, the Reported substrates hydrolyzed (listed as FucA1) was 4- methylumbellife ryl α- L-fucopyranoside, pNP-F uc, 2’ -FL.

B2: AlfA: α-L-fucosidase from Dictyostelium discoideum (Uniprot P10901) (protein, UniProt P10901 19-461, looked up)
Alpha-L-fucosidase: QQYGPTWDQINSRPLPGWYDDVKFGIFIHFGIYSVPAFANGGYAEWYWWTLKNPSSDGGATQRYHEKEFGANFTYQDFVSRFDCRLFDANEWASIIEKSGAKYVVLTSKHHEGYTLWNSEQSWNWNSVETGPGIDIVGELTKSVKNMGLHMGLYHSLFEWFNPLYLADAETGKNPTTQVYVDEILMKQLKDIVTTYEPELIWADGDWMQLSNYWKSTEFLSWLYTNSSVKDTVIVNDRWGSECRDKNGGFYTGADHFNPYKLQSHKWENCATIGYSYGYDEYEQATDYQNATELIIDLVTTVACGGNFLLDVGPDAQGTIPNNMVDRLLEIGNWLSINSESIYGSSPWRVQNMTFNIWYTTNTTNGNVYAFVFELPDDGVLILSDPIGNNKTEATLLGLKGEKGVEVSLPIESTKPGITLNIPMVAPQDYPPYVYVFRLTDVE
As for B2, the Reported substrates hydrolyzed is listed as 6- O-alpha-L-fucopyranosyl- N-acetylglucosaminitol and the “Reported substrates not hydrolyzed” value is given as “Lacto-N-fucopentaitol II”.

B3: AtFUC1;At2g28100: α-1,3/4-L-fucosidase 1 from Arabidopsis thaliana (Uniprot Q8GW72) (protein, UniProt Q8GW72 24-506, looked up)
Alpha-L-fucosidase 1: SSLLKPHPCPILPLPSSQQLQWQLGSMAMFLHFGPNTFTDSEWGTGKANPSIFNPTHLNASQWVQIAKDSGFSRVILTAKHHDGFCLWPSEYTDYSVKSSQWRNGAGDVVAELASAAKEAGIGLGLYLSPWDRHEQCYGKTLEYNEFYLSQMTELLTKYGEIKEVWLDGAKGDGEKDMEYFFDTWFSLIHQLQPKAVIFSDAGPDVRWIGDEAGLAGSTCWSLFNRTNAKIGDTEPSYSQEGDGYGQDWVPAECDVSIRPGWFWHASESPKPAVQLLDIYYNSVGRNCLFLLNVPPNSSGLISEQDIKVLEEFSEMKNSIFSNNLARKAFVNSSSIRGDQSSQFGPKNVLEEGLDKYWAPEENQNEWVLYLEFKDLVSFNVLEIREPIHMGQRIASFHLETRKTGSGEWERVVSGTTVGNKRLLRFLNVVESRSLKLVVDKARTDPLISYLGLYMDKFSGSSRNTTKITITRTLKEEQQLHDL
On to B3, for which the Reported substrates hydrolyzed is recorded as 2-aminobenzamide labeled LNFP II, 3FL, fucose linked α1-4 and the “Reported substrates not hydrolyzed” value is 2-aminobenzamide labeled 2’-FL, pNP-Fuc.

B4: FucA2;Mgc1314;dJ20N2.5: α-L-fucosidase FucA2 from Homo sapiens (Uniprot Q7Z6V2) (protein, UniProt Q9BTY2 29-467, looked up)
Plasma alpha-L-fucosidase: HSATRFDPTWESLDARQLPAWFDQAKFGIFIHWGVFSVPSFGSEWFWWYWQKEKIPKYVEFMKDNYPPSFKYEDFGPLFTAKFFNANQWADIFQASGAKYIVLTSKHHEGFTLWGSEYSWNWNAIDEGPKRDIVKELEVAIRNRTDLRFGLYYSLFEWFHPLFLEDESSSFHKRQFPVSKTLPELYELVNNYQPEVLWSDGDGGAPDQYWNSTGFLAWLYNESPVRGTVVTNDRWGAGSICKHGGFYTCSDRYNPGHLLPHKWENCMTIDKLSWGYRREAGISDYLTIEELVKQLVETVSCGGNLLMNIGPTLDGTISVVFEERLRQMGSWLKVNGEAIYETHTWRSQNDTVTPDVWYTSKPKEKLVYAIFLKWPTSGQLFLGHPKAILGATEVKLLGHGQPLNWISLEQNGIMVELPQLTIHQMPCKWGWALALTNVI
As for B4, the Reported substrates hydrolyzed result is reported as “Hydrolyzes pNP-Fuc, prefers α1-2 but capable of cleaving”.

B5: FucA1;FucA: α-L-fucosidase FucA1 from Rattus norvegicus (Uniprot P17164) (protein, UniProt P17164 29-462, looked up)
Tissue alpha-L-fucosidase: APHHYTPDWPSLDSRPLPRWFDEAKFGLFVHWGVYSVPAWGSEWFWWHWQGEQSSAYVRFMKENYPPGFSYADFAPQFTARFFHPEEWADLFQAAGAKYVVLTAKHHEGFTNWPSAVSWNWNSKDVGPHRDLVGELGAAVRKRNIRYGLYHSLFEWFHPLYLLDKKNGLKTQHFVSTKTMPELYDLVNRYKPDLIWSDGEWECPDSYWNSTEFLAWLYNESPVKDQVVVNDRWGQNCSCRHGGYYNCEDKYRPHSLPDHKWEMCTSVDKASWGYRRDMSMSTIVDENEIIEELVQTISLGGNYLLNIGPNKDGVIVPIFQERLLAVGKWLQINGEAIYASKPWRVQSERNKTVVWYTTKDSAVYATFLHWPEDGVVNLQSPKMTSATKITMLGMEGELHWTQDPLEGVLITLPQLPPGTFPVESAWTLKLTKVN
On to B5, for which the Reported substrates hydrolyzed entry is “Hydrolyzes pNP-Fuc, α1-2, α1-3, and α1-4 fucosyl linkages”; the “Reported substrates not hydrolyzed” value was “Fucα1- 2GlcNAcβ-p NP”.
